Measurements from publication PMC12331936, “Structural Insights into the Protein Mannosyltransferase from Mycobacterium tuberculosis reveal a WW-Domain-Like Protein Motif in Bacteria” (Communications Biology, 2025).
Where a chain is given by its changes, count along the chain named. In names and notes the source's numbering stands.

B1: MtPMT: M. tuberculosis protein-O-mannosyltransferase, wild type (protein, UniProt P9WN05 1-522, looked up)
Polyprenol-phosphate-mannose-- …: MTARPPESCVLAKDRPEEPVVPVVSPGPLVPVADFGPLDRLRGWIVTGLITLLATVTRFLNLGSLTDAGTPIFDEKHYAPQAWQVLNNHGVEDNPGYGLVVHPPVGKQLIAIGEAIFGYNGFGWRFTGALLGVVLVALVVRIVRRISRSTLVGAIAGVLLICDGVSFVTARTALLDGFLTFFVVAAFGALIVDRDQVRERMHIALLAGRSAATVWGPRVGVRWWRFGAGVLLGLACATKWSGVYFVLFFGAMALAFDVAARRQYQVQRPWLGTVRRDVLPSGYALGLIPFAVYLATYAPWFASETAIDRHAVGQAVGRNSVVPLPDAVRSLWHYTAKAFHFHAGLTNSAGNYHPWESKPWTWPMSLRPVLYAIDQQDVAGCGAQSCVKAEMLVGTPAMWWLAVPVLAYAGWRMFVRRDWRYAVVLVGYCAGWLPWFADIDRQMYFFYAATMAPFLVMGISLVLGDILYHPGQGSERRTLGLIVVCCYVALVVTNFAWLYPVLTGLPISQQTWNLEIWLPSWR
B2: phenylalanine was substituted for Y444: MtPMT with phenylalanine substituted for Y444 (protein, UniProt P9WN05 1-522, looked up, variant Y444F)
Polyprenol-phosphate-mannose-- …: B1 Polyprenol-phosphate-mannose-- … with Y444F
B3: W362A (protein, UniProt P9WN05 1-522, looked up, variant W362A)
Polyprenol-phosphate-mannose-- …: B1 Polyprenol-phosphate-mannose-- … with W362A
B4: L392A (protein, UniProt P9WN05 1-522, looked up, variant L392A)
Polyprenol-phosphate-mannose-- …: B1 Polyprenol-phosphate-mannose-- … with L392A
B5: D176E (protein, UniProt P9WN05 1-522, looked up, variant D176E)
Polyprenol-phosphate-mannose-- …: B1 Polyprenol-phosphate-mannose-- … with D176E
B6: E74D75: di-substitution of D74E75 with the reversed doublet (protein, UniProt P9WN05 1-522, looked up, variant D74E E75D)
Polyprenol-phosphate-mannose-- …: B1 Polyprenol-phosphate-mannose-- … with D74E, E75D
B7: D74E (protein, UniProt P9WN05 1-522, looked up, variant D74E)
Polyprenol-phosphate-mannose-- …: B1 Polyprenol-phosphate-mannose-- … with D74E
B8: D74A (protein, UniProt P9WN05 1-522, looked up, variant D74A)
Polyprenol-phosphate-mannose-- …: B1 Polyprenol-phosphate-mannose-- … with D74A
B9: S365T (protein, UniProt P9WN05 1-522, looked up, variant S365T)
Polyprenol-phosphate-mannose-- …: B1 Polyprenol-phosphate-mannose-- … with S365T
B10: Y371A-L392A (protein, UniProt P9WN05 1-522, looked up, variant Y371A L392A)
Polyprenol-phosphate-mannose-- …: B1 Polyprenol-phosphate-mannose-- … with Y371A, L392A
B11: R441A (protein, UniProt P9WN05 1-522, looked up, variant R441A)
Polyprenol-phosphate-mannose-- …: B1 Polyprenol-phosphate-mannose-- … with R441A
B12: R441L (protein, UniProt P9WN05 1-522, looked up, variant R441L)
Polyprenol-phosphate-mannose-- …: B1 Polyprenol-phosphate-mannose-- … with R441L

What was measured:
[1] = test system: MtPMT; conditions: in vivo (M. smegmatis cell assay); cited from earlier work
[2] = test system: EL4Cter* peptide; assay type: binding; conditions: EL4Cter* 35 µM; increasing concentration of Z^x95; mean of three independent measurements
[3] = test system: FasC^His; assay type: cell-based, M. smegmatis
[4] = test system: PhoA; assay type: cell-based, E. coli
[5] = test system: MtPMT; assay type: cell-based; conditions: MtPMT mutant expressed in M. smegmatis ΔMsPMT; ELLA, relative to WT (100%) and No PMT (0%)

Molecule | FasC^His mannosylation / MtPMT enzymatic activity (ConA binding) [5] | further results
Cc1cc(-n2c(C)cc(/C=C/C(=O)N3CCCC3c3cccs3)c2C)no1 (stereo not shown) [Z^x95, (2E)-3-[2,5-dimethyl-1-(5-methyl-1,2-oxazol-3-yl)-1H-pyrrol-3-yl]-1-[2-(thiophen-2-yl)pyrrolidin-1-yl]prop-2-en-1-one] |  | effect on FasC mannosylation in vivo [1]: reduce FasC mannosylation in vivo; effect on thermal denaturation curves of EL4Cter* [2]: dose-dependent deviation of EL4Cter* thermal denaturation curves
B1 |  | number of FasC glycosylation states [3]: 18; phosphatase activity on solid medium (chromogenic substrate) [4]: remained uncolored
B2 | almost half of the FasC mannosylation level remained | 
B3 | absence of Fasc^His mannosylation | reduction of expression of mutated enzyme (PhoA activity of PhoA fusion) [4]: about 50%
B4 |  | reduction (drop) of apparent FasC mannosylation level [5]: 73%
B5 | slightly restored mannosylation activity | 
B6 | failed to restore Fasc^His mannosylation | 
B7 | only marginally restored enzyme activity | 
B8 | complete lack of mannosylation | 
B9 | only partially impacted FasC mannosylation | 
B10 | complete abolition of the mannosyl transferase activity | 
B11 | completely abolished FasC mannosylation | 
B12 | completely abolished FasC mannosylation | 
